Results published in the supplement of paper PMC10567573.
± gives the standard deviation.

Experiment: protein stability index of a GFP-peptide fusion (GPS, HEK-293T) (PSI 1-6); higher = more stable
[1] = treatment: DMSO, c terminus: a fixed tail appended
[2] = treatment: MLN4924 1 uM, 8 h, c terminus: a fixed tail appended
[3] = treatment: DMSO, c terminus: native
[4] = treatment: MLN4924 1 uM, 8 h, c terminus: native
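Note: 24-mer peptide tiles fused after GFP, lentivirally expressed, FACS-sorted into six equal bins by GFP/DsRed ratio, decoded by Illumina sequencing, PSI is the read-weighted mean bin number.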

Row | Sequence | protein stability index [1] | protein stability index [2] | protein stability index [3] | protein stability index [4]
1 | GKAFPSGCSAVSEPASESVVGALP [TRAF3IP2] | 4.33 ± 0.14 | 4.59 ± 0.24 |  | 
2 | PDNEQLMEEVISPRQVSYTPQHHE [IQUB] | 5.16 ± 0.4 | 5.32 ± 0.19 |  | 
3 | ATYRSLLEGQDAKMIGFPSSAGSV [KRT13] | 3.22 ± 0.4 | 3.54 ± 0.24 |  | 
4 | VLEQEETAAASRERQEEQSAAIHI [EPB41L3] | 5.33 ± 0.24 | 5.16 ± 0.23 |  | 
5 | EKGILTTEKQNFLLFDMTTHPVTN [GOLPH3L] | 3.69 ± 0.32 | 3.61 ± 0.27 |  | 
6 | TNLVLPSNGSMHNYCPQQTKITSA [EDNRA] | 3.75 ± 0.13 | 3.63 ± 0.14 |  | 
7 | KRSWTSAQNACSEHGATLAVIDSE [CD69] | 4.64 ± 0.076 | 4.67 ± 0.17 |  | 
8 | GALTPTPAPTTTTATREEASTSLP [CLPTM1] | 5.28 ± 0.33 | 5.58 ± 0.22 |  | 
9 | LPMLSVDMENKENGSVGVKNSMEN [SAMD13] | 5.09 ± 0.25 | 5.18 ± 0.27 |  | 
10 | SSRSTVPTPAKRRSSALWSEMLDI [NET1] | 2.62 ± 0.25 | 2.96 ± 0.46 |  | 
11 | KQNARFLTSMRRLSSIKRDTNSIA [STX11] | 3.12 ± 0.25 | 3.21 ± 0.2 |  | 
12 | NEKEKALQAQVQYQQQHEQQKKDL [SASS6] | 5.66 ± 0.2 | 5.48 ± 0.5 |  | 
13 | RVRGRVGTIRPVRCPSSSLHMSQR [C22orf15] | 3.14 ± 0.28 | 3.57 ± 0.19 |  | 
14 | MASQSQGIQQLLQAEKRAAEKVSE [ATP6V1G1] | 4.93 ± 0.36 | 5.385 ± 0.052 |  | 
15 | NALSKSSAPPITPECRQVLKTSRK [CHGB] | 4.68 ± 0.22 | 4.77 ± 0.15 |  | 
16 | PSWNGSLKQLLTETDVWFSKQRKD [GMCL1] | 3.27 ± 0.049 | 3.29 ± 0.43 |  | 
17 | VEKEEEPDPEPPPVTPQVGEGRKS [SMG5] | 5.48 ± 0.13 | 5.53 ± 0.21 |  | 
18 | SQMVSTDNSLSSQNYISQKEDASE [MIA2] | 5.29 ± 0.44 | 5.21 ± 0.26 |  | 
19 | HSLVRSRHRIPEPEAAVLFRQMAT [TRIB3] | 3.18 ± 0.13 | 3.31 ± 0.15 |  | 
20 | KPKKKKEKKEKEKKKKDKEKEKEK [BRD3] | 5.26 ± 0.097 | 5.19 ± 0.14 |  | 
21 | PQEKLWQQLRRGRYVEFNLLYDRG [CPOX] | 2.56 ± 0.11 | 2.55 ± 0.42 |  | 
22 | LFQTHENREHLVMMEKILGPIPSH [CLK3] | 2.85 ± 0.3 | 3.1 ± 0.15 |  | 
23 | VRGHHPKSGEEAVTVLEDLEKGLE [ZNF232] | 4.73 ± 0.21 | 4.72 ± 0.63 |  | 

Row | Sequence | protein stability index [1] | protein stability index [2] | protein stability index [3] | protein stability index [4]
24 | SDLNTNNLLFKPPVESHIQKNKKI [KMT2E] | 4.31 ± 0.16 | 4.45 ± 0.39 |  | 
25 | VDADAGHNAWLSYSLLPQSTAPGL [PCDHGC5] | 2.87 ± 0.33 | 3 ± 0.26 |  | 
26 | YFCYKAILEFAEKEGMVSSGQNLL [PTPN9] | 2.2 ± 0.31 | 2.38 ± 0.46 |  | 
27 | TPTPQALYPDLSCPEGLEELLSAP [SPSB2] | 4.54 ± 0.24 | 4.55 ± 0.3 |  | 
28 | NLVARHPLFSEDVVLKLFLSFSGS [SNX8] | 2.7 ± 0.58 | 2.33 ± 0.2 |  | 
29 | DSTKTAFHRSQTLSYRNGYAIVRR [EFHC1] | 3.31 ± 0.12 | 3.48 ± 0.32 |  | 
30 | KKKEGGALRAQRASSNVFSNFEQT [MYL5] | 4.42 ± 0.45 | 4.47 ± 0.15 |  | 
31 | SPRSTSVTTTSSASVTTTSNASGR [KRT13] | 5.31 ± 0.2 | 5.32 ± 0.12 |  | 
32 | WIIKSNYQGLPVRCVKSIIRQVLQ [SRPK2] | 2.75 ± 0.48 | 2.78 ± 0.5 |  | 
33 | GKSFRQRPSLVIHLRIHTGEKPYK [ZNF449] | 2.72 ± 0.53 | 2.61 ± 0.65 |  | 
34 | SGFSARERLERAVSDRLAPGAPRG [MYCL] | 4.13 ± 0.3 | 4.16 ± 0.2 |  | 
35 | EFSIDNYPTDNTKVMIFKSSYSLS [MIA2] | 2.75 ± 0.64 | 2.48 ± 0.3 |  | 
36 | AITTDCLQILAYGNQESKLIILAS [CTNNB1] | 2.85 ± 0.64 | 2.81 ± 0.84 |  | 
37 | SIGDIESCKLVRDKITGQSLGYGF [ELAVL3] | 2.72 ± 0.21 | 2.55 ± 0.17 |  | 
38 | SPEVESLPVASSSTLLPLAPSNST [NFE2L1] | 5.04 ± 0.23 | 5.27 ± 0.13 |  | 
39 | EEPENGEPTAAATARRSKRERREE [PWWP2B] | 5.63 ± 0.29 | 5.8 ± 0.14 |  | 
40 | KDLVMYSKCQRLFRSPSMPCSVIR [CDC25B] | 2.2 ± 0.18 | 2.73 ± 0.34 |  | 
41 | AALNALQPPEFRNESSLASTLKTL [VMA21] | 3.44 ± 0.2 | 3.51 ± 0.18 |  | 
42 | ERPERRSGPPASYCAKLCEPQWFY [C8orf76] | 2.46 ± 0.26 | 2.54 ± 0.32 |  | 
43 | SGGYGQDALGMDPMMEHEMGGHHP [CTNNB1] | 4.65 ± 0.18 | 4.69 ± 0.23 |  | 
44 | FIDKEDLKDTYASLGKTNVKDDEL [MYL5] | 4.8 ± 0.15 | 4.92 ± 0.19 |  | 
45 | EETVTMLEDVERELDGPKQIFFGR [ZNF396] | 4.5 ± 0.14 | 4.49 ± 0.26 |  | 
46 | FLSLACARGSIVATYIFIFIGETL [SPNS1] | 2.72 ± 0.2 | 2.92 ± 0.71 |  | 

Row | Sequence | protein stability index [1] | protein stability index [2] | protein stability index [3] | protein stability index [4]
47 | VSSSEQLQSYQAEIIELRRTVNAL [KRT33B] | 3.12 ± 0.22 | 3.2 ± 0.42 |  | 
48 | DIKDDIYDPTYKDKEGPSPKVEYV [SCD] | 4.92 ± 0.14 | 4.68 ± 0.17 |  | 
49 | GHSQEKTHSREKSSQESGEEAGSQ [CHGB] | 5.52 ± 0.56 | 5.45 ± 0.33 |  | 
50 | VNKVCGAACSSKRSPIIDVKNDRD [SERPINB5] | 3.77 ± 0.33 | 3.89 ± 0.15 |  | 
51 | TPATTTEPPKPTFPAYTQSTASTT [ZNF207] | 4.99 ± 0.12 | 5.1 ± 0.15 |  | 
52 | RIVKIWDMTPVVGCSLATGFSPH [WDFY1] |  |  | 2.05 ± 0.28 | 2.34 ± 0.32
53 | PEDRPSLDDIIRHDFFLQGFTPDR [PLK2] | 4.35 ± 0.12 | 4.27 ± 0.29 |  | 
54 | FGLAIEVEGEQQAWFGFAGTPGYL [CAMK2A] | 2.68 ± 0.92 | 2.92 ± 0.65 |  | 
55 | PRQADHDDHECCERVVINISGLRF [KCNA1] | 3.1 ± 0.086 | 3.33 ± 0.27 |  | 
56 | PFLFFGHFWQLFNALTLFNLAQDP [TMEM120A] | 3.35 ± 0.086 | 3.08 ± 0.13 |  | 
57 | YDILPLSPVSRNRLAQVKRKILVL [CTDNEP1] | 2.11 ± 0.36 | 2.35 ± 0.22 |  | 
58 | LQDIKTAGPQSQVLCGVVMDRSLV [ADD1] | 2.98 ± 0.22 | 2.91 ± 0.19 |  | 
59 | SDSIAYDKGEKLLRCKLAAFYRLA [ADD1] | 2.33 ± 0.49 | 2.34 ± 0.28 |  | 
60 | DINGLRRILDELTLCKADLEAQVE [KRT36] | 3.02 ± 0.33 | 3.14 ± 0.25 |  | 
61 | LSPISHGNTIALFFRSLLPNYTME [TCF25] | 3.25 ± 0.47 | 2.33 ± 0.7 |  | 
62 | ENHSMYCVQCKMPVCYQCLEEGKH [TRIM9] | 4.07 ± 0.2 | 4.36 ± 0.41 |  | 
63 | LTDFYPVRRSSRKSKAELQSEERK [KMT5A] | 3.04 ± 0.39 | 3.49 ± 0.9 |  | 
64 | HTRSWAVLKLLLLLLLFGVAGGLV [LRRC59] | 2.56 ± 0.44 | 2.44 ± 0.35 |  | 
65 | YSHLGGIDYKTTTILLDGQRVKLK [RAB40A] | 3.12 ± 0.29 | 3.25 ± 0.23 |  | 
66 | CLGQLNLEQRSESVRRTRSKIGFG [SMAD6] | 3.06 ± 0.25 | 3.1 ± 0.35 |  | 
67 | YPGIRAGRKNAAPLTIRPPTDWE [TRIM39] |  |  | 3.44 ± 0.31 | 3.9 ± 0.36
68 | PNRVLAPEQSLKKTKTSEYPIIFV [SPANXN3] | 2.22 ± 0.17 | 2.12 ± 0.34 |  | 
69 | EVSHPFLIRLFWTWHDERFLYMLM [PRKX] | 2.24 ± 0.55 | 2.14 ± 0.19 |  | 

Row | Sequence | protein stability index [1] | protein stability index [2] | protein stability index [3] | protein stability index [4]
70 | DFEFLAFWQTQYNNMNAVNLFFAW [PKD2L1] | 3.17 ± 0.5 | 2.93 ± 0.55 |  | 
71 | QKITAIITFPSLESCEEKNQLILT [WDR41] | 2.29 ± 0.16 | 2.22 ± 0.26 |  | 
72 | RLLQEEDRRKKIARMGFNASSMLR [DCAF4] | 2.52 ± 0.22 | 2.57 ± 0.25 |  | 
73 | FSIPPTNHEIMPGGSVNITCVAVG [PTPRD] | 2.22 ± 0.17 | 2.06 ± 0.14 |  | 
74 | WGHCEVTMRYINGLDPEPLPLMDL [SPSB4] | 2.49 ± 0.26 | 2.5 ± 0.4 |  | 
75 | QNPPVIKSSGRFLWIKFFAAGELE [NETO1] | 2.57 ± 0.53 | 2.11 ± 0.19 |  | 
76 | LASYLEKVRQLERDNAELENLIRE [KRT33B] | 3.31 ± 0.5 | 3.34 ± 0.36 |  | 
77 | TAKNSRVVCGMFGFPGERTYNTKV [LOXL2] | 2.6 ± 0.3 | 2.63 ± 0.067 |  | 
78 | DGNGGQFREVYVGKETMCTVDGLH [TRIM9] | 3.94 ± 0.37 | 4.11 ± 0.28 |  | 
79 | WFKTRRKEMTQKLEALHLEALCEE [DENND6A] | 3.29 ± 0.27 | 3.88 ± 0.42 |  | 
80 | RRPVNVPLDMFSEEIKFYELGEEA [KCNA1] | 3.62 ± 0.33 | 3.84 ± 0.17 |  | 
81 | TTSETQKSVQCGTWTKHAEGGIFT [NETO1] | 3.59 ± 0.085 | 3.62 ± 0.23 |  | 
82 | VEVLGPYEPLLSRVQAALVWERPA [RETREG3] | 2.37 ± 0.39 | 2.48 ± 0.24 |  | 
83 | IIDSSRSVNTHDYAKVKEFIVDIL [MATN2] | 2.23 ± 0.2 | 2.37 ± 0.22 |  | 
84 | GLRLRLPRRESLLRGLCRPLRPLL [C6orf223] | 2.15 ± 0.13 | 2.2 ± 0.29 |  | 
85 | PETQLFWDKEPWFWHDTLTEQLWR [TLE6] | 2.7 ± 0.57 | 2.27 ± 0.36 |  | 
86 | LLLFLVFVIVLFFIYHFMQAEEGN [EMD] | 2.23 ± 0.15 | 2.42 ± 0.15 |  | 
87 | EGRKKAFSTCGSHLTVVAIFYGSG [OR3A1] | 2.77 ± 0.4 | 3.15 ± 0.38 |  | 
88 | DKHGCPAYVSPEILNTTGTYSGKA [TRIB1] | 4.44 ± 0.26 | 4.52 ± 0.12 |  | 
89 | SPWADGTPCGPAQACMGGRCLHMD [ADAMTS4] | 4.28 ± 0.21 | 4.47 ± 0.36 |  | 
